Measurements: patent US7223734B2, “Plasma protein-binding ligands” (The American National Red Cross, priority 2002, dated 2007)

Molecular target: T1, fibrinogen (Homo sapiens, UniProt P02671+P02675+P02679)
T1 construct: from tissue; host or cells: human plasma
T1 sequence (P02671 20-629 limits assumed): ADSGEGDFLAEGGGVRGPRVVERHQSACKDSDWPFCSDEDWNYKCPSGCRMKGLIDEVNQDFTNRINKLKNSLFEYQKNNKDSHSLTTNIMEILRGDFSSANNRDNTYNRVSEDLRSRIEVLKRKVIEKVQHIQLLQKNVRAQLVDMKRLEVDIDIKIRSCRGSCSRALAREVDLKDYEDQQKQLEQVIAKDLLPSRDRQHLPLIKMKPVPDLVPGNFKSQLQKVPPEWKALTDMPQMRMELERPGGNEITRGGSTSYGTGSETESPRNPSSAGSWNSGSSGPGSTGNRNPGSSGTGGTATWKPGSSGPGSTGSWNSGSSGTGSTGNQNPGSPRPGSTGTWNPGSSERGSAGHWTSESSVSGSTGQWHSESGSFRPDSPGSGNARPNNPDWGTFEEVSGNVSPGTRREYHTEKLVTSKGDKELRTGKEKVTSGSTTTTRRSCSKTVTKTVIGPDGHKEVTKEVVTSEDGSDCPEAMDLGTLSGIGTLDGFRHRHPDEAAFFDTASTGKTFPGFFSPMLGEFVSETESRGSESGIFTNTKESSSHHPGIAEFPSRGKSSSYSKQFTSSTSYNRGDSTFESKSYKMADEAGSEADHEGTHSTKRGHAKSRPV
T1 sequence (P02675 31-491): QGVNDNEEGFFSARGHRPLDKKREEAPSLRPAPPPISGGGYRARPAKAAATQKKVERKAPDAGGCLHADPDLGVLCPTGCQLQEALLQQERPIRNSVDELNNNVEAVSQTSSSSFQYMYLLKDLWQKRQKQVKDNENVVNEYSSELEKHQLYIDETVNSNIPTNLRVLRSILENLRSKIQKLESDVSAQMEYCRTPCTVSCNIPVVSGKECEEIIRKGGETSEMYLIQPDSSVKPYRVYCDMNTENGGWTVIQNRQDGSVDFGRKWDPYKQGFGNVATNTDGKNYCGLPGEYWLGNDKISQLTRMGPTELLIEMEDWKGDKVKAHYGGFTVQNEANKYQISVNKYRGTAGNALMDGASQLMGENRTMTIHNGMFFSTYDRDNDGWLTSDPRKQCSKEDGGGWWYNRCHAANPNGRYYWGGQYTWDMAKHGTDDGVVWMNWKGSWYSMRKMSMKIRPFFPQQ
T1 sequence (P02679 27-433 limits assumed): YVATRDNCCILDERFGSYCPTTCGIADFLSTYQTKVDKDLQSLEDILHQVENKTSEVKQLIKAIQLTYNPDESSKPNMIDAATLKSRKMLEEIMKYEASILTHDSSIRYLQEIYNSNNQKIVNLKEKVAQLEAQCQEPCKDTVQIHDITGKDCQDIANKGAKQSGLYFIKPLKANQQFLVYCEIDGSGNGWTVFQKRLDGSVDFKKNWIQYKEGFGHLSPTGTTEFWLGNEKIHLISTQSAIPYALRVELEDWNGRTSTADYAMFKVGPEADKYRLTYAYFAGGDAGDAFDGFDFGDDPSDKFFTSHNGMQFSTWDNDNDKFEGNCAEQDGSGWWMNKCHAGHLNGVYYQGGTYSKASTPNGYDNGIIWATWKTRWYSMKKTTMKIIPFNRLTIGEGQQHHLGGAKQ
Assay: Purification of fibrinogen from plasma on HWQ resin column (Example 3)
Assay type: binding
Method: Five milliliters of plasma was applied at a flow rate of 0.2 ml/min. onto a 0.8 ml column (RT=4.0 min) containing a resin displaying the HWQ ligand, and was equilibrated with 0.14 M NaCl, 0.020M sodium citrate, pH 7.0 (EQ buffer). After washing the resin with EQ buffer and 0.5 M NaCl, pH 7.0, to baseline, the bound fibrinogen was eluted with 2.0 M NaCl, pH 7.0 or 0.3 M glycine, 0.5M NaCl, pH 9.0. All of the wash and elution buffers contained 0.020 M sodium citrate. […] However, dynamic resin capacities of 5–8 mg were reached. The resin was regenerated with 2 M guanidine-HCl, 2% Sarkosyl, 30% ethanol and 70% ethanol/2% acetic acid, followed by storage in 20% methanol.

HWQ was tested, and the “elution of bound fibrinogen” value (2.0 M NaCl, pH 7.0 or 0.3 M glycine, 0.5M NaCl, pH 9.0) was “Complete elution of fibrinogen was not achieved” and the dynamic resin capacities (5 ml plasma on 0.8 ml column) was 5 to 8 mg.
